T1: OX40-Fc (Mus musculus, UniProt P47741)
T1 construct: made in house
T1 sequence (P47741 20-211 limits assumed): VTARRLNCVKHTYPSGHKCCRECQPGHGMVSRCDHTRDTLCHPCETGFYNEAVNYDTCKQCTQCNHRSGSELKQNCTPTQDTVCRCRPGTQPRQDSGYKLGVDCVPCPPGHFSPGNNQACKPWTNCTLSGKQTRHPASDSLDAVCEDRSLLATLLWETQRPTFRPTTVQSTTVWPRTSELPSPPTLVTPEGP


Columns and labels:
[1] = target: T1, OX40-Fc; design: method as in PMID 36450532, PMID 37371066; conditions: previous studies; ref [23], [24]; cited from earlier work
[2] = system: antigen-specific CD4+ T cells; assay: Activation-induced marker (AIM) assay on dLN cells from TNP-KLH/CFA-immunized mice; type: in vivo, C57BL/6 mice; conditions: 20 µg i.p. on days 1 and 3, KLH 18 hours
Protocol: To perform the activation-induced marker (AIM) assay, a valuable method to detect antigen-specific CD4^+ T cells ([29], [30]), draining lymph node (dLN) cells were initially incubated with IgG from rat serum (14131, Merck) to block nonspecific binding. The following antibodies were used for cell-surface staining: PE/Cyanine7 anti-mouse CD4 (GK1.5, 100421, BioLegend), Alexa Fluor® 488 anti-mouse CD25 (PC61, 102018, BioLegend), and APC anti-mouse CD134 (OX-40) (OX-86, 119413, BioLegend). For Foxp3 staining, cells were fixed and permeabilized with the eBioscience™ Foxp3/Transcription Factor Staining Buffer Set (00-5523-00, Thermo Fisher), then stained with PE Anti-Mo/Ra FOXP3, eBioscience™ (FJK-16s, 12-5773-08, Thermo Fisher). Data were acquired on a FACS Canto II or a Celesta (BD Biosciences, Franklin Lakes, NJ, U.S.A.) and analyzed with BD FACS Diva software version 9 or Flowing software version 2 (Turku Bioscience, Turku, Finland, http://flowingsoftware.btk.fi/).
Groups of C57BL/6 mice from both male and female mice aged between 5 and 15 weeks were immunized subcutaneously at the footpad with 100 µg of 2,4,6-trinitrophenyl-conjugated keyhole limpet hemocyanin (TNP-KLH) emulsified in complete Freund’s adjuvant (CFA) (F5881, Merck) on day 0. […] Cell viability on day 3 was assessed with a 3-(4,5-dimethylthiazol-2-yl)-2,5-diphenyl-tetrazolium (MTT) (M2128, Merck) assay.

[3] = system: antigen-specific T cell responses of draining lymph node cells; assay: Antigen recall responses of dLN cells from TNP-KLH/CFA-immunized mice (cytokine ELISA, MTT proliferation); type: in vivo, C57BL/6 mice; conditions: for antigen-specific T cell responses (recall IFN-γ, IL-17, IL-4 production and proliferation of dLN cells): 20 µg i.p. on days 1 and 3, TNP-KLH/CFA day 0, dLN day 7, KLH recall 3 days
Excerpt: The following reagents were used for the measurement of cytokines from T cells: anti-IL-2 (JES6-1A12, 503701, BioLegend, San Diego, CA, U.S.A.) capture antibody, biotin-anti-IL-2 (JES6-5H4, 503803, BioLegend) detection antibody, anti-IFN-γ (R4-6A2, 505702, BioLegend) capture antibody, biotin-anti-IFN-γ (XMG1.2, 505804, BioLegend) detection antibody, anti-IL-4 (11B11, 504101, BioLegend) capture antibody, biotin-anti-IL-4 (BVD6-24G2, 504201, BioLegend) detection antibody, anti-IL-17A (TC11-18H10.1, 506901, BioLegend) capture antibody, biotin-anti-IL-17A (TC11-8H4, 507001, BioLegend) detection antibody, HRP streptavidin (405210, BioLegend), and 3,3’,5,5’-tetramethylbenzidine (TMB, 421101, BioLegend). The absorbance was measured at 450 nm or 620 nm using a FilterMax F5 (Molecular Devices, San Jose, CA, U.S.A.).
Groups of C57BL/6 mice from both male and female mice aged between 5 and 15 weeks were immunized subcutaneously at the footpad with 100 µg of 2,4,6-trinitrophenyl-conjugated keyhole limpet hemocyanin (TNP-KLH) emulsified in complete Freund’s adjuvant (CFA) (F5881, Merck) on day 0. Recombinant proteins in PBS were injected intraperitoneally on days 1 and 3. On day 7, pooled dLN cells were plated in 200 µL volumes in 96-well plates in triplicate in the presence or absence of KLH. Cells were harvested at 18 hours for the AIM assay. Culture supernatants were harvested at 72 hours for cytokine ELISA. Cell viability on day 3 was assessed with a 3-(4,5-dimethylthiazol-2-yl)-2,5-diphenyl-tetrazolium (MTT) (M2128, Merck) assay.

Molecule	specific interaction with OX40 [1]	frequency of OX40+CD25+Foxp3+CD4+ cells (AIM assay) [2]	frequency of OX40+CD25+Foxp3-CD4+ cells (AIM assay) ([2]; compared to control (PBS) or OX86)	antigen-specific T cell responses (recall IFN-γ, IL-17, IL-4 production and proliferation of dLN cells) [3]	induction of IL-4-producing cells ([3]; TNP-KLH/CFA-immunized mice, Figures 7, 9)
Fc-scOX40L: Fusion protein: Fc, PA, single-chain OX40L trimer (three OX40L joined by GGGSGGG linkers), His6; dimer of trimers (protein, left off: Fc (human IgG1: hinge, CH2, CH3), N-terminal, kept | PA tag (…), internal (between Fc and the first OX40L), kept | His6, C-terminal, kept, Fusion protein: Fc, PA, single-chain OX40L trimer (three OX40L joined by GGGSGGG linkers), His6; dimer of trimers) SSSPAKDPPIQRLRGAVTRCEDGQLFISSYKNEYQTMEVQNNSVVIKCDGLYIIYLKGSFFQEVKIDLHFREDHNPISIPMLNDGRRIVFTVVASLAFKDKVYLTVNAPDTLCEHLQINDGELIVVQLTPGYCAPEGSYHSTVNQVPLGGGSGGGSSSPAKDPPIQRLRGAVTRCEDGQLFISSYKNEYQTMEVQNNSVVIKCDGLYIIYLKGSFFQEVKIDLHFREDHNPISIPMLNDGRRIVFTVVASLAFKDKVYLTVNAPDTLCEHLQINDGELIVVQLTPGYCAPEGSYHSTVNQVPLGGGSGGGSSSPAKDPPIQRLRGAVTRCEDGQLFISSYKNEYQTMEVQNNSVVIKCDGLYIIYLKGSFFQEVKIDLHFREDHNPISIPMLNDGRRIVFTVVASLAFKDKVYLTVNAPDTLCEHLQINDGELIVVQLTPGYCAPEGSYHSTVNQVPL	specifically interact with OX40	significantly enhanced frequency	significantly increased frequency	elicited stronger antigen-specific T cell responses than Fc-MBL-OX40L (B) and scOX40L-Fc (D)	promoted the induction of IL-4-producing cells
scOX40L-Fc: Fusion protein: OX40L, Linker, OX40L, Linker, OX40L, Fc, PA, and His6 (protein, left off: Fc (human IgG1: hinge, CH2, CH3), C-terminal, kept | PA tag (…), C-terminal, kept | His6, C-terminal, kept) SSSPAKDPPIQRLRGAVTRCEDGQLFISSYKNEYQTMEVQNNSVVIKCDGLYIIYLKGSFFQEVKIDLHFREDHNPISIPMLNDGRRIVFTVVASLAFKDKVYLTVNAPDTLCEHLQINDGELIVVQLTPGYCAPEGSYHSTVNQVPLGGGSGGGSSSPAKDPPIQRLRGAVTRCEDGQLFISSYKNEYQTMEVQNNSVVIKCDGLYIIYLKGSFFQEVKIDLHFREDHNPISIPMLNDGRRIVFTVVASLAFKDKVYLTVNAPDTLCEHLQINDGELIVVQLTPGYCAPEGSYHSTVNQVPLGGGSGGGSSSPAKDPPIQRLRGAVTRCEDGQLFISSYKNEYQTMEVQNNSVVIKCDGLYIIYLKGSFFQEVKIDLHFREDHNPISIPMLNDGRRIVFTVVASLAFKDKVYLTVNAPDTLCEHLQINDGELIVVQLTPGYCAPEGSYHSTVNQVPL	–	–	–	triggered significantly higher T cell responses compared to the None (PBS) control group	–
